# Assay results as given in patent US20090092595A1, “Suppression of sPLA2-integrin binding for treating an inflammatory condition” (REGENTS OF THE UNIVERSITY OF CALIFORNIA, priority 2007, published 2009).
# Assays:
# integrin α4β1 = biological target: T1, integrin α4β1 (Homo sapiens, UniProt P05556+P13612); assay: Adhesion of α4-K562 cells (recombinant α4β1) to immobilized sPLA2-IIA; type: cell-based; details: data not shown
# T1 construct: K562 cells have endogenous α5β1; expressed in transfected cells; host or cells: K562
# Experimental: FIG. 5. sPLA2-IIA binding to integrin α4β1. a) Cells expressing recombinant α4β1 adhered to wt sPLA2-IIA better than cells expressing other recombinant integrins. We used transfected K562 cells clonally express different human integrins for adhesion assays. Low background adhesion to BSA was subtracted. […] Wells of 96-well microtiter plate were coated with VCAM-1 and FN-GST, and incubated with U937 cells (1×10^4 cells/plate) in the presence of the increasing concentrations of sPLA2-IIA for 1 h at 37° C. Adherent cells were quantified using endogenous phosphatase after gently rinsing the well to remove unbound cells. Data is shown as means+/−SEM of triplicate experiments. *P=0.0101 and **P<0.0001 by t-test. c) Amino acid sequence in the α4 subunit that is critical for VCAM-1 and CS-1 binding is also critical for sPLA2-IIA binding. CHO cells that clonally express wt or mutant α4 (Irie, A. et al., Embo J, 14(22): 5550-5556 (1995)) were used for adhesion assays. Data is shown as means+/−SEM of triplicate experiments. Similar results were obtained using K562 cells expressing α4 mutants (not shown).
# Other methods We performed docking simulation of interaction between sPLA2-IIA and integrin αvβ3 using the AutoDock3 as previously described (Mori, S. et al., J Biol Chem, in press (2008)). […]
# [1] = biological target: integrin αvβ3 on CHO cells expressing recombinant αvβ3 (β3-CHO) and on proteoglycan-deficient pgs745 cells (β3-745) (human) (UniProt P05106); assay: cell adhesion to coated sPLA2-IIA, 7E3 at 10 µg/ml in the medium; about the background level
# soluble integrin αvβ3 = biological target: T2, soluble integrin αvβ3 (Homo sapiens, UniProt P05106+P06756); assay: Binding of soluble αvβ3 to immobilized sPLA2-IIA (ELISA-type assay); details: immobilized protein, 20 μg/ml coating
# T2 construct: Recombinant soluble αvβ3 was synthesized as previously described; made in house
# Experimental: Binding of soluble αvβ3 to immobilized sPLA2-IIA sPLA2-IIA was immobilized to wells of 96 well microtiter plates and the remaining protein-binding sites were blocked by BSA as described (Mori, S. et al., J Biol Chem, 283:18066-18075 (2008)). Soluble recombinant αvβ3 at 5 μg/ml in Hepes-Tyrodes buffer supplemented with 1 mM MnCl2 was added to the well and incubated for 2 h. Bound αvβ3 was measured using anti-integrin β3 (mAb AV-10) followed by HRP-conjugated goat anti-mouse IgG and peroxidase substrates.
# [2] = Bradley et al. 2005; cited from earlier work
# [3] = Bowton et al. 2005; cited from earlier work
# [4] = biological target: T3, recombinant soluble integrin αvβ3 (UniProt P06756 31-992; P05106 27-718); assay: SPR (Biacore), soluble αvβ3 amine-coupled to CM5 chip, mutant injected, 1 mM Mn2+, 1:1 binding with drifting baseline model
# T3 construct: Soluble heterodimer; whole entries named only; also called soluble αvβ3; soluble recombinant αvβ3
# Experimental: The mutant proteins were tested for binding to soluble integrin αvβ3.
# Surface plasmon resonance study Recombinant soluble integrin αvβ3 was immobilized to Biacore Sensor chip CM5 (Biacore, Piscataway, N.J.) by the standard amine coupling method. […] Then the sensor chip was washed with the running buffer alone at the same flow rate for another 5 min (the dissociation phase). Two consecutive one-minute injections of 0.5 M, pH 8 EDTA solution at the same flow rate were used to regenerate the chip for another cycle of injection. The resonance unit elicited from the reference flow cell was subtracted from the resonance unit elicited from the integrin flow cell to eliminate the non-specific protein-flow cell interaction and the bulk refractive index effect. The recorded binding curves were fitted with the “1:1 binding with drifting baseline model” by using the Biaevaluation Version 4.1.
# [5] = PLA2 activity by arachidonoyl-Thio-PC hydrolysis; type: biochemical; details: effect of mutation on catalytic activity
# Experimental: Other methods We performed docking simulation of interaction between sPLA2-IIA and integrin αvβ3 using the AutoDock3 as previously described (Mori, S. et al., J Biol Chem, in press (2008)). Adhesion assays were performed as described previously (Eto, K. et al., J. Biol. Chem., 277:17804-17810 (2002)). mAb 7E3 was used at 10 μg/ml. We assayed PLA2 activity by arachidonoyl-Thio-PC hydrolysis (Cayman Chemicals, Ann Arbor, Mich.) as described (Reynolds, L. J. et al., Anal. Biochem., 217:25-32 (1994)).
# [6] = system: U937 human monocytic lymphoma cells; assay: Proliferation of U937 cells (MTS assay); type: cell-based; details: serum-starved 48 h, treated 48 h
# Experimental: (§1) U937 cells (αvβ3+, α4β1+) were plated in wells of 96-well plates (10,000 cells/well), and serum-starved for 48 h. After treatment with wt or mutant sPLA2-IIA for 48 h, we measured cell proliferation by MTS assays. […] U937 cells were serum-starved for 24 h, and stimulated with wt and mutant sPLA2-IIA (0.5 μg/ml) for 10 min at 37° C. Cell lysates were analyzed by western blotting with anti-phospho ERK1/2 or anti-ERK1/2 antibodies. The blot is representative of three independent experiments.
# (§2) Cell proliferation and MAP kinase activation K562 cells and human monocytic lymphoma U937 cells were maintained in RPM11640 medium supplemented with 10% FCS. Cells were plated in 96-well plates (1×10^4 cells/well), and serum-starved for 48 h at 37° C. in 5% CO2 atmosphere. Cells were then treated with or without sPLA2-IIA in medium without serum for 48 h. Cell proliferation was determined by MTS assays using the Aqueous Cell Proliferation Assay Kit (Promega). For MAP kinase activation assays, cells were serum starved in RPMI1640 medium supplemented with 0.4% FCS for 24 h, and stimulated with Wt and mutant sPLA2-IIA (0.5 μg/ml) for 10 min at 37° C. ERK1/2 activation was measured as described (Mori, S. et al., J Biol Chem, in press (2008)).
# ERK1/2 = assay: MAP kinase (ERK1/2) activation in U937 cells, western blotting; type: cell-based, human; details: 0.5 μg/ml, 10 min, 37° C.
# Experimental: as §1, §2
# α4-K562 cells = assay: Proliferation of α4-K562 cells (MTS assay); type: cell-based, human; details: serum-starved 48 h, stimulated 48 h
# Experimental: (§3) Cells were serum-starved for 48 h and stimulated with sPLA2-IIA for 48 h. Cell proliferation was determined by MTS assays. Data is shown as means+/−SEM of triplicate experiments. α4- and αvβ3-K562 cells proliferated faster than mock-K562 cells. […] Serum-starved cells were stimulated with wt or mutant sPLA2-IIA (0.5 μg/ml) for 48 h. Data is shown as means+/−SEM of triplicate experiments. α4-K562 and αvβ3-K562 cells grew faster than mock K562 cells with wt and H47Q sPLA2-IIA (*P<0.05 by t-test).
# as §2
# αvβ3-K562 cells = assay: Proliferation of αvβ3-K562 cells (MTS assay); type: cell-based, human; details: serum-starved 48 h, stimulated 48 h
# Experimental: as §3, §2
# T2 sequence (P06756 31-992 limits assumed): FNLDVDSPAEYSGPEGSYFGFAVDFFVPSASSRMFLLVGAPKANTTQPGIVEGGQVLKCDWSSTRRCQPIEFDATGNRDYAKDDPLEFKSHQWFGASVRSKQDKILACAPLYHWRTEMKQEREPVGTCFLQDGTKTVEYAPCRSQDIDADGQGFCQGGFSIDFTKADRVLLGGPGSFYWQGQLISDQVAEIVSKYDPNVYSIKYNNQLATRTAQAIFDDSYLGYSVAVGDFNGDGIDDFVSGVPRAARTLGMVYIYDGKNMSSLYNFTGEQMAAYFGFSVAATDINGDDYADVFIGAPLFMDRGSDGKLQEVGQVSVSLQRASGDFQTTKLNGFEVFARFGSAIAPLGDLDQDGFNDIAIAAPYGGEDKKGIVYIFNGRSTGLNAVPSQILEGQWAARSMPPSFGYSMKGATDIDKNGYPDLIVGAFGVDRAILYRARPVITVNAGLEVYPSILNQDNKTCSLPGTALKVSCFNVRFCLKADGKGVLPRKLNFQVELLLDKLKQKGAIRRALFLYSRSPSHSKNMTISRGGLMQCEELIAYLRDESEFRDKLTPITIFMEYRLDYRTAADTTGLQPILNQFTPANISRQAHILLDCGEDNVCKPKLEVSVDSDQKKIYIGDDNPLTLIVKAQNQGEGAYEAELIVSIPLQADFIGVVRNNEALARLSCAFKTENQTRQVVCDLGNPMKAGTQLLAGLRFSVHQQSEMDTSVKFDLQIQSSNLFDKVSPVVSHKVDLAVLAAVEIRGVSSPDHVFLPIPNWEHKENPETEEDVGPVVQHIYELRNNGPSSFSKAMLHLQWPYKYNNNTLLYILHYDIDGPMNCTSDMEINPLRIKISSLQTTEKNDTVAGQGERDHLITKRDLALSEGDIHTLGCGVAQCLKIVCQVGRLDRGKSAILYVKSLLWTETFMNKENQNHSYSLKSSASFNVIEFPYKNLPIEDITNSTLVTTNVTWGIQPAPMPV
# T2 sequence (P05106 27-718 limits assumed): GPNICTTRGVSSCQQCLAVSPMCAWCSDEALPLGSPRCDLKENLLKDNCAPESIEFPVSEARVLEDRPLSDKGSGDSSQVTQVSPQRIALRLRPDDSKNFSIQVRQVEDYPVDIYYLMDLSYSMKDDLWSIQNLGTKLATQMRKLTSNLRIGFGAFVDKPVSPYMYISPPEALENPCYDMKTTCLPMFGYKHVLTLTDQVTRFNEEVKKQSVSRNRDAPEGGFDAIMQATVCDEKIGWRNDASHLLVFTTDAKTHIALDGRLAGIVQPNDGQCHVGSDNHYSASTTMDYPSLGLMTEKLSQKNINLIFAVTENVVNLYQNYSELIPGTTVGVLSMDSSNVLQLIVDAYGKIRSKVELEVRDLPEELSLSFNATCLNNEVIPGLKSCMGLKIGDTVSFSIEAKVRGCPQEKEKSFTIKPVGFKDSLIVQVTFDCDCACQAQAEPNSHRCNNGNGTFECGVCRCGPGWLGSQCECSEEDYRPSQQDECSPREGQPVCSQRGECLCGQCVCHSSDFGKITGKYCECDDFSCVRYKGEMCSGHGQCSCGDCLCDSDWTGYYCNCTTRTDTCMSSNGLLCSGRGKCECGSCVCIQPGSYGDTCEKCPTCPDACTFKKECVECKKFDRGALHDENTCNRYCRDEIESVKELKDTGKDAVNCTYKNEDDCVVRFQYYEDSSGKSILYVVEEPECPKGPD
# T3 sequence (P06756 31-992, chain 1 of 2): as the sequence (P06756 31-992 limits assumed) above
# T3 sequence (P05106 27-718, chain 2 of 2): as the sequence (P05106 27-718 limits assumed) above
# T1 sequence (P13612 34-1032): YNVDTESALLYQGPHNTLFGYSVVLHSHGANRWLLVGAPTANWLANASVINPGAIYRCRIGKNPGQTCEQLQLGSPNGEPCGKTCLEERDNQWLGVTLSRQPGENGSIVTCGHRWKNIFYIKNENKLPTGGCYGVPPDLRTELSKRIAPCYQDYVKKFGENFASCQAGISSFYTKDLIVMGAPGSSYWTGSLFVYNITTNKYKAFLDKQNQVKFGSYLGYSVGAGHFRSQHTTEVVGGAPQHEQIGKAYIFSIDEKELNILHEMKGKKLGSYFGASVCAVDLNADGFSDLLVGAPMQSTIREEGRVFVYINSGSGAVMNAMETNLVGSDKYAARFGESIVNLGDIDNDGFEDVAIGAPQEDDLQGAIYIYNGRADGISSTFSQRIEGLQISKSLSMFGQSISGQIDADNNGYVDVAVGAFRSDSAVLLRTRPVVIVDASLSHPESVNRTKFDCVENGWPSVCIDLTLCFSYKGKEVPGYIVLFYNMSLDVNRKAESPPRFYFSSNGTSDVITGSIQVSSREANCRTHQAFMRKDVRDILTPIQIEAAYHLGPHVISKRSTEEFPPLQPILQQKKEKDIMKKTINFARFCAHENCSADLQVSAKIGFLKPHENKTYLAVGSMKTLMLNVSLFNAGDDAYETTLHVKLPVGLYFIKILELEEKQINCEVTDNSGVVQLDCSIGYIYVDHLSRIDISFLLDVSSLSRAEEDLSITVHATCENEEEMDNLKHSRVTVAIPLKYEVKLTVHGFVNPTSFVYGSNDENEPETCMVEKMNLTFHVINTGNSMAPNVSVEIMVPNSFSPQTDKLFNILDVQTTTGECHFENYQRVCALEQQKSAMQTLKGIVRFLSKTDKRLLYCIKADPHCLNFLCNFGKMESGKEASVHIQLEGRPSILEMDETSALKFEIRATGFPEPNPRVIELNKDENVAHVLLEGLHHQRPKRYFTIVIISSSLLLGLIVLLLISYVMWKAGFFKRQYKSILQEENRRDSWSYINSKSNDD
# T1 sequence (P05556 21-798): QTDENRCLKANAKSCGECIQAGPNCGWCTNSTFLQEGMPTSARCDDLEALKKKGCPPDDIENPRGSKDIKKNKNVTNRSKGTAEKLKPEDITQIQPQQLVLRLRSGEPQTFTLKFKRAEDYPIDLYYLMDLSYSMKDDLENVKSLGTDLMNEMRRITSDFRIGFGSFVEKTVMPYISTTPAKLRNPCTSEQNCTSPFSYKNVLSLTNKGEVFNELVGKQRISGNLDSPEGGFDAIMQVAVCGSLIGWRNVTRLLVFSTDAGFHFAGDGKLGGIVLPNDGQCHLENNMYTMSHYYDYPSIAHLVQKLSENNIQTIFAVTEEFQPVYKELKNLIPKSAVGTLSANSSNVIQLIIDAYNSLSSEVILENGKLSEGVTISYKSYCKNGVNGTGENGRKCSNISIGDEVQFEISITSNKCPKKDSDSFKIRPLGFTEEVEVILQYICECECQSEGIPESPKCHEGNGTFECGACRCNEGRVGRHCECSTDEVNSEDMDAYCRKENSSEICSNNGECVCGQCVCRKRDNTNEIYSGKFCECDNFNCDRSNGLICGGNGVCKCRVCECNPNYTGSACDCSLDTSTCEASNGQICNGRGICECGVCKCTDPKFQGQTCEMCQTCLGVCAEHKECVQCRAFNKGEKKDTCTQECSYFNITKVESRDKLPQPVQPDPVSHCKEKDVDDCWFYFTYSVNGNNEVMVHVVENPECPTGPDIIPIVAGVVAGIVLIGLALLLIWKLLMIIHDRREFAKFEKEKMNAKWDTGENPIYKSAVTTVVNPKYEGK
# integrin αvβ3 on CHO cells expressing recombinant αvβ3 (β3-CHO) and on proteoglycan-deficient pgs745 cells (β3-745) (human), sequence (P05106 27-788): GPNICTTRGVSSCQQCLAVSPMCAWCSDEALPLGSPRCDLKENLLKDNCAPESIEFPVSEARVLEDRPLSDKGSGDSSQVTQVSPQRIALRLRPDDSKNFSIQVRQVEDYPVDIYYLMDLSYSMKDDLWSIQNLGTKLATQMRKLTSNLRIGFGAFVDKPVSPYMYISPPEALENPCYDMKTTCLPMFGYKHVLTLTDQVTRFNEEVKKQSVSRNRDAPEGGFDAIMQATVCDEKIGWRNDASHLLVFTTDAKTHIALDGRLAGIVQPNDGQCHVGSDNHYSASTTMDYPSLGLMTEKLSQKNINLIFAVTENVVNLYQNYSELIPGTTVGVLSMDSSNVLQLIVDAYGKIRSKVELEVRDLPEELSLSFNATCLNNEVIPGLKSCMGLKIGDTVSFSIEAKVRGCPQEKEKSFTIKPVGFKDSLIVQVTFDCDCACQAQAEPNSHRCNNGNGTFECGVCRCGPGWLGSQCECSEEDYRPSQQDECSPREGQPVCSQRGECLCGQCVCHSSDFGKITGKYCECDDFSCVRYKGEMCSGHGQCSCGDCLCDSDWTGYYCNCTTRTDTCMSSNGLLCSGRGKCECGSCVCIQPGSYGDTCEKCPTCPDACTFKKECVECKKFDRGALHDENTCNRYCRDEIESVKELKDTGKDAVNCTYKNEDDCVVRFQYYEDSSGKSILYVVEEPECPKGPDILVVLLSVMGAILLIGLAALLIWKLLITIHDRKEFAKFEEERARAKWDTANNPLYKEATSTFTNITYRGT
molecule,measurement,setting,value
"Cc1ccccc1NC(=O)Nc1ccc(CC(=O)N[C@@H](CCCCNC(=O)/C=C/c2cccnc2)C(=O)N[C@@H](CCCC(=O)O)C(=O)NC2(C(N)=O)CCCCC2)cc1 [LLP2A, reference compound]",blocking of α4β1 binding to sPLA2-IIA in transfected K562 cells,integrin α4β1,did not block
"mAb 7E3 (specific to human β3 subunit, function blocking) (antibody)",adhesion of β3-CHO cells to immobilized sPLA2-IIA in the presence of the antibody (%),[1],30%
"disintegrin domain of ADAM15: a known αvβ3 ligand, positive control [reference compound]",binding to soluble αvβ3,soluble integrin αvβ3,bound
CCc1c(C(=O)C(N)=O)c2c(OCC(=O)[O-])cccc2n1Cc1ccccc1.[Na+] [S-5920/LY315920Na],therapeutic effect in rheumatoid arthritis,[2],failed to demonstrate a significant therapeutic effect
same,therapeutic effect in asthma,[3],failed to demonstrate a significant therapeutic effect
CCc1c(C(=O)C(N)=O)c2c(OCC(=O)OC)cccc2n1Cc1ccccc1 [S-3013/LY333013],therapeutic effect in rheumatoid arthritis,[2],failed to demonstrate a significant therapeutic effect
same,therapeutic effect in asthma,[3],failed to demonstrate a significant therapeutic effect
"sPLA2-IIA H47Q mutant (catalytically inactive) (enzyme, human, UniProt P14555 21-144, looked up, mature; the printed positions appear to count on the mature protein, not on the precursor entry P14555; also called H47Q sPLA2-IIA; not shown: N-terminal vector-encoded residues with His tag from the PET28a/amp vector) NLVNFHRMIKLTTGKEAALSYGFYGCHCGVGGRGSPKDATDRCCVTQDCCYKRLEKRGCGTKFLSYKFSNSGSRITCAKQDSCRSQLCECDKAAATCFARNKTTYNKKYQYYSNKHCRGSTPRC",Kd,[4],44.7 nM
"R74E: sPLA2-IIA mutant, Arg-74 mutated to Glu (protein, left off: small tags and cut ends, sPLA2-IIA mutant, Arg-74 mutated to Glu) NLVNFHRMIKLTTGKEAALSYGFYGCHCGVGGRGSPKDATDRCCVTHDCCYKRLEKRGCGTKFLSYKFSNSGSEITCAKQDSCRSQLCECDKAAATCFARNKTTYNKKYQYYSNKHCRGSTPRC",binding to soluble αvβ3,soluble integrin αvβ3,reduced the binding
"R74E/R100E: integrin-binding-defective combined mutant of sPLA2-IIA, Arg-74 and Arg-100 mutated to Glu (protein, left off: small tags and cut ends) NLVNFHRMIKLTTGKEAALSYGFYGCHCGVGGRGSPKDATDRCCVTHDCCYKRLEKRGCGTKFLSYKFSNSGSEITCAKQDSCRSQLCECDKAAATCFAENKTTYNKKYQYYSNKHCRGSTPRC",binding to soluble αvβ3,soluble integrin αvβ3,effectively reduced the binding
same,PLA2 activity,[5],did not affect PLA2 activity
same,proliferation of monocytic U937 cells,[6],did not
same,ERK1/2 activation in U937 cells,ERK1/2,did not induce
same,proliferation of α4-K562 cells,α4-K562 cells,did not induce proliferation
same,proliferation of αvβ3-K562 cells,αvβ3-K562 cells,did not induce proliferation
"R100E: sPLA2-IIA mutant, Arg-100 mutated to Glu (protein, left off: small tags and cut ends, sPLA2-IIA mutant, Arg-100 mutated to Glu) NLVNFHRMIKLTTGKEAALSYGFYGCHCGVGGRGSPKDATDRCCVTHDCCYKRLEKRGCGTKFLSYKFSNSGSRITCAKQDSCRSQLCECDKAAATCFAENKTTYNKKYQYYSNKHCRGSTPRC",binding to soluble αvβ3,soluble integrin αvβ3,reduced the binding
"R53E: sPLA2-IIA mutant, Arg-53 mutated to Glu (protein, left off: small tags and cut ends, sPLA2-IIA mutant, Arg-53 mutated to Glu) NLVNFHRMIKLTTGKEAALSYGFYGCHCGVGGRGSPKDATDRCCVTHDCCYKELEKRGCGTKFLSYKFSNSGSRITCAKQDSCRSQLCECDKAAATCFARNKTTYNKKYQYYSNKHCRGSTPRC",binding to soluble αvβ3,soluble integrin αvβ3,little or no effect
"H47Q: catalytically inactive mutant of sPLA2-IIA, His-47 mutated to Gln (protein, left off: small tags and cut ends) NLVNFHRMIKLTTGKEAALSYGFYGCHCGVGGRGSPKDATDRCCVTQDCCYKRLEKRGCGTKFLSYKFSNSGSRITCAKQDSCRSQLCECDKAAATCFARNKTTYNKKYQYYSNKHCRGSTPRC",binding to soluble αvβ3,soluble integrin αvβ3,did not affect the binding
same,PLA2 activity,[5],reduced PLA2 activity
same,proliferation of monocytic U937 cells,[6],induced robust proliferation
same,ERK1/2 activation in U937 cells,ERK1/2,induced
same,proliferation of α4-K562 cells,α4-K562 cells,induced proliferation
same,proliferation of αvβ3-K562 cells,αvβ3-K562 cells,induced proliferation
"R42E: sPLA2-IIA mutant, Arg-42 mutated to Glu (protein, left off: small tags and cut ends, sPLA2-IIA mutant, Arg-42 mutated to Glu) NLVNFHRMIKLTTGKEAALSYGFYGCHCGVGGRGSPKDATDECCVTHDCCYKRLEKRGCGTKFLSYKFSNSGSRITCAKQDSCRSQLCECDKAAATCFARNKTTYNKKYQYYSNKHCRGSTPRC",binding to soluble αvβ3,soluble integrin αvβ3,little or no effect
"sPLA2-IIA R74E/R100E mutant (integrin-binding-defective) (enzyme, human, UniProt P14555 21-144, looked up, mature; the printed positions appear to count on the mature protein; not shown: N-terminal vector-encoded residues with His tag from the PET28a/amp vector) NLVNFHRMIKLTTGKEAALSYGFYGCHCGVGGRGSPKDATDRCCVTHDCCYKRLEKRGCGTKFLSYKFSNSGSEITCAKQDSCRSQLCECDKAAATCFAENKTTYNKKYQYYSNKHCRGSTPRC",Kd,[4],1080 nM
